Laboratory results published in the supplement of paper PMC10567573.

B1: C10orf62 (parent)
chain: RALEEVEMKLQKNFLTQRENTIAG

Variants of: B1
Test: protein stability index of a GFP-peptide fusion (GPS, HEK-293T) (PSI 1-6); higher = more stable
Conditions: c terminus: a fixed tail appended
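Also: lentivirally expressed fusions sorted by FACS into six bins by GFP to DsRed ratio, PSI derived from sequencing read proportions per bin multiplied by bin number.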

Variant	protein stability index
RALEEVEMKLQNNFLTQRENTIAG [K12N]	4.44
RALEEVEMKLQQNFLTQRENTIAG [K12Q]	3.72
RALEEVEMKLQTNFLTQRENTIAG [K12T]	4.2
RALEEVEMKLQYNFLTQRENTIAG [K12Y]	2.3
RALEEVEMKLQCNFLTQRENTIAG [K12C]	3.3
RALEEVEMKLQRNFLTQRENTIAG [K12R]	3.31
RALEEVEMKLQANFLTQRENTIAG [K12A]	3.77
RALEEVEMKLQGNFLTQRENTIAG [K12G]	3.77
RALEEVEMKLQMNFLTQRENTIAG [K12M]	2.86
RALEEVEMKLQINFLTQRENTIAG [K12I]	2.15
RALEEVEMKLQWNFLTQRENTIAG [K12W]	1.94
RALEEVEMKLQVNFLTQRENTIAG [K12V]	2.31
RALEEVEMKLQDNFLTQRENTIAG [K12D]	4.03
RALEEVEMKLQENFLTQRENTIAG [K12E]	4.05
RALEEVEMKLQFNFLTQRENTIAG [K12F]	2
RALEEVEMKLQHNFLTQRENTIAG [K12H]	3.43
RALEEVEMKLQLNFLTQRENTIAG [K12L]	2.67
RALEEVEMKLQPNFLTQRENTIAG [K12P]	4.14
RALEEVEMKLQSNFLTQRENTIAG [K12S]	2.77
RALEEVEMKLQKNFLSQRENTIAG [T16S]	3.64
RALEEVEMKLQKNFLAQRENTIAG [T16A]	2.98
RALEEVEMKLQKNFLFQRENTIAG [T16F]	3.26
RALEEVEMKLQKNFLIQRENTIAG [T16I]	3.06
RALEEVEMKLQKNFLDQRENTIAG [T16D]	4.09

Variant	protein stability index
RALEEVEMKLQKNFLHQRENTIAG [T16H]	3.44
RALEEVEMKLQKNFLNQRENTIAG [T16N]	2.83
RALEEVEMKLQKNFLRQRENTIAG [T16R]	2.81
RALEEVEMKLQKNFLGQRENTIAG [T16G]	4.06
RALEEVEMKLQKNFLYQRENTIAG [T16Y]	2.74
RALEEVEMKLQKNFLCQRENTIAG [T16C]	3.24
RALEEVEMKLQKNFLVQRENTIAG [T16V]	3.16
RALEEVEMKLQKNFLPQRENTIAG [T16P]	3.09
RALEEVEMKLQKNFLWQRENTIAG [T16W]	2.97
RALEEVEMKLQKNFLLQRENTIAG [T16L]	2.79
RALEEVEMKLQKNFLEQRENTIAG [T16E]	3.91
RALEEVEMKLQKNFLMQRENTIAG [T16M]	3.23
RALEEVEMKLQKNFLKQRENTIAG [T16K]	3.54
RALEEVEMKLQKNFLQQRENTIAG [T16Q]	3.45
RALEEVEDKLQKNFLTQRENTIAG [M8D]	4.6
RALEEVESKLQKNFLTQRENTIAG [M8S]	4.08
RALEEVEFKLQKNFLTQRENTIAG [M8F]	3.65
RALEEVEWKLQKNFLTQRENTIAG [M8W]	2.81
RALEEVENKLQKNFLTQRENTIAG [M8N]	3.75
RALEEVEQKLQKNFLTQRENTIAG [M8Q]	4.12
RALEEVECKLQKNFLTQRENTIAG [M8C]	3.58
RALEEVEHKLQKNFLTQRENTIAG [M8H]	4.23
RALEEVEYKLQKNFLTQRENTIAG [M8Y]	3.6
RALEEVEEKLQKNFLTQRENTIAG [M8E]	4.92

Variant	protein stability index
RALEEVEGKLQKNFLTQRENTIAG [M8G]	4.64
RALEEVEIKLQKNFLTQRENTIAG [M8I]	3.26
RALEEVELKLQKNFLTQRENTIAG [M8L]	3.3
RALEEVETKLQKNFLTQRENTIAG [M8T]	4.23
RALEEVEPKLQKNFLTQRENTIAG [M8P]	3.94
RALEEVEKKLQKNFLTQRENTIAG [M8K]	2.63
RALEEVEAKLQKNFLTQRENTIAG [M8A]	4.09
RALEEVERKLQKNFLTQRENTIAG [M8R]	3.38
RALEEVEVKLQKNFLTQRENTIAG [M8V]	3.35
RALEEVEMKLFKNFLTQRENTIAG [Q11F]	2.44
RALEEVEMKLAKNFLTQRENTIAG [Q11A]	3.31
RALEEVEMKLNKNFLTQRENTIAG [Q11N]	3.51
RALEEVEMKLHKNFLTQRENTIAG [Q11H]	2.94
RALEEVEMKLPKNFLTQRENTIAG [Q11P]	3.9
RALEEVEMKLEKNFLTQRENTIAG [Q11E]	4.28
RALEEVEMKLMKNFLTQRENTIAG [Q11M]	2.64
RALEEVEMKLCKNFLTQRENTIAG [Q11C]	3.52
RALEEVEMKLIKNFLTQRENTIAG [Q11I]	2.13
RALEEVEMKLSKNFLTQRENTIAG [Q11S]	3.48
RALEEVEMKLLKNFLTQRENTIAG [Q11L]	2.28
RALEEVEMKLDKNFLTQRENTIAG [Q11D]	4.43
RALEEVEMKLTKNFLTQRENTIAG [Q11T]	3.73
RALEEVEMKLKKNFLTQRENTIAG [Q11K]	3.31
RALEEVEMKLWKNFLTQRENTIAG [Q11W]	1.98

Variant	protein stability index
RALEEVEMKLVKNFLTQRENTIAG [Q11V]	2.82
RALEEVEMKLRKNFLTQRENTIAG [Q11R]	3.71
RALEEVEMKLGKNFLTQRENTIAG [Q11G]	3.63
RALEEVEMKLYKNFLTQRENTIAG [Q11Y]	2.78
RALEEVEMKLQKNWLTQRENTIAG [F14W]	3.61
RALEEVEMKLQKNELTQRENTIAG [F14E]	4.61
RALEEVEMKLQKNKLTQRENTIAG [F14K]	4.11
RALEEVEMKLQKNCLTQRENTIAG [F14C]	4.29
RALEEVEMKLQKNGLTQRENTIAG [F14G]	4.11
RALEEVEMKLQKNSLTQRENTIAG [F14S]	4.37
RALEEVEMKLQKNVLTQRENTIAG [F14V]	3.97
RALEEVEMKLQKNLLTQRENTIAG [F14L]	4.64
RALEEVEMKLQKNYLTQRENTIAG [F14Y]	3.69
RALEEVEMKLQKNILTQRENTIAG [F14I]	3.86
RALEEVEMKLQKNALTQRENTIAG [F14A]	4.72
RALEEVEMKLQKNMLTQRENTIAG [F14M]	3.82
RALEEVEMKLQKNDLTQRENTIAG [F14D]	4.66
RALEEVEMKLQKNQLTQRENTIAG [F14Q]	4.45
RALEEVEMKLQKNHLTQRENTIAG [F14H]	4.47
RALEEVEMKLQKNRLTQRENTIAG [F14R]	4.33
RALEEVEMKLQKNNLTQRENTIAG [F14N]	4.49
RALEEVEMKLQKNPLTQRENTIAG [F14P]	4.66
RALEEVEMKLQKNTLTQRENTIAG [F14T]	4.11
RALEEVSMKLQKNFLTQRENTIAG [E7S]	2.97

Variant	protein stability index
RALEEVPMKLQKNFLTQRENTIAG [E7P]	3.98
RALEEVTMKLQKNFLTQRENTIAG [E7T]	2.6
RALEEVYMKLQKNFLTQRENTIAG [E7Y]	2.38
RALEEVQMKLQKNFLTQRENTIAG [E7Q]	3.35
RALEEVMMKLQKNFLTQRENTIAG [E7M]	1.33
RALEEVRMKLQKNFLTQRENTIAG [E7R]	2.29
RALEEVVMKLQKNFLTQRENTIAG [E7V]	1.27
RALEEVNMKLQKNFLTQRENTIAG [E7N]	3.61
RALEEVEMKAQKNFLTQRENTIAG [L10A]	4.13
RALEEVEMKGQKNFLTQRENTIAG [L10G]	4.29
RALEEVEMKKQKNFLTQRENTIAG [L10K]	4.35
RALEEVEMKIQKNFLTQRENTIAG [L10I]	3.5
RALEEVEMKDQKNFLTQRENTIAG [L10D]	4.56
RALEEVEMKPQKNFLTQRENTIAG [L10P]	4.4
RALEEVEMKCQKNFLTQRENTIAG [L10C]	3.58
RALEEVEMKRQKNFLTQRENTIAG [L10R]	3.4
RALEEVEMKMQKNFLTQRENTIAG [L10M]	3.75
RALEEVEMKTQKNFLTQRENTIAG [L10T]	4.4
RALEEVEMKHQKNFLTQRENTIAG [L10H]	4
RALEEVEMKVQKNFLTQRENTIAG [L10V]	4.04
RALEEVEMKEQKNFLTQRENTIAG [L10E]	5.17
RALEEVEMKFQKNFLTQRENTIAG [L10F]	3.37
RALEEVEMKNQKNFLTQRENTIAG [L10N]	4.25
RALEEVEMKYQKNFLTQRENTIAG [L10Y]	3.67

Variant	protein stability index
RALEEVEMKQQKNFLTQRENTIAG [L10Q]	3.22
RALEEVEMKSQKNFLTQRENTIAG [L10S]	4.66
RALEEVEMKWQKNFLTQRENTIAG [L10W]	2.88
RALEEVEMKLQKCFLTQRENTIAG [N13C]	3.23
RALEEVEMKLQKIFLTQRENTIAG [N13I]	1.76
RALEEVEMKLQKWFLTQRENTIAG [N13W]	1.36
RALEEVEMKLQKDFLTQRENTIAG [N13D]	3.89
RALEEVEMKLQKVFLTQRENTIAG [N13V]	3
RALEEVEMKLQKPFLTQRENTIAG [N13P]	3.96
RALEEVEMKLQKHFLTQRENTIAG [N13H]	2.72
RALEEVEMKLQKEFLTQRENTIAG [N13E]	3.92
RALEEVEMKLQKAFLTQRENTIAG [N13A]	2.58
RALEEVEMKLQKQFLTQRENTIAG [N13Q]	3.4
RALEEVEMKLQKRFLTQRENTIAG [N13R]	3.42
RALEEVEMKLQKMFLTQRENTIAG [N13M]	3.02
RALEEVEMKLQKKFLTQRENTIAG [N13K]	3.3
RALEEVEMKLQKFFLTQRENTIAG [N13F]	2.23
RALEEVEMKLQKLFLTQRENTIAG [N13L]	2.86
RALEEVEMKLQKYFLTQRENTIAG [N13Y]	2.62
RALEEVEMKLQKGFLTQRENTIAG [N13G]	3.15
RALEEVEMKLQKSFLTQRENTIAG [N13S]	3.52
RALEEVEMKLQKTFLTQRENTIAG [N13T]	3.31
RALEEVEMKLQKNFLTGRENTIAG [Q17G]	3.73
RALEEVEMKLQKNFLTHRENTIAG [Q17H]	3.31

Variant	protein stability index
RALEEVEMKLQKNFLTKRENTIAG [Q17K]	3.5
RALEEVEMKLQKNFLTIRENTIAG [Q17I]	2.89
RALEEVEMKLQKNFLTCRENTIAG [Q17C]	3.21
RALEEVEMKLQKNFLTFRENTIAG [Q17F]	2.13
RALEEVEMKLQKNFLTDRENTIAG [Q17D]	4.13
RALEEVEMKLQKNFLTARENTIAG [Q17A]	3.42
RALEEVEMKLQKNFLTERENTIAG [Q17E]	3.96
RALEEVEMKLQKNFQTQRENTIAG [L15Q]	4.84
RALEEVEMKLQKNFHTQRENTIAG [L15H]	3.85
RALEEVEMKLQKNFYTQRENTIAG [L15Y]	3.71
RALEEVEMKLQKNFVTQRENTIAG [L15V]	3.77
RALEEVEMKLQKNFRTQRENTIAG [L15R]	3.94
RALEEVEMKLQKNFETQRENTIAG [L15E]	4.3
RALEEVEMKLQKNFMTQRENTIAG [L15M]	3.62
RALEEVEMKLQKNFNTQRENTIAG [L15N]	3.99
RALEEVEMKLQKNFDTQRENTIAG [L15D]	4.69
RALEEVEMKLQKNFKTQRENTIAG [L15K]	4.21
RALEEVEMKLQKNFGTQRENTIAG [L15G]	3.9
RALEEVEMKLQKNFTTQRENTIAG [L15T]	3.66
RALEEVEMKLQKNFWTQRENTIAG [L15W]	2.63
RALEEVEMKLQKNFATQRENTIAG [L15A]	3.92
RALEEVEMKLQKNFSTQRENTIAG [L15S]	4.38
RALEEVEMKLQKNFCTQRENTIAG [L15C]	3.44
RALEEVEMKLQKNFPTQRENTIAG [L15P]	3.89

Variant	protein stability index
RALEEVEMKLQKNFITQRENTIAG [L15I]	3.71
RALEEVEMMLQKNFLTQRENTIAG [K9M]	2.79
RALEEVEMGLQKNFLTQRENTIAG [K9G]	3.75
RALEEVEMPLQKNFLTQRENTIAG [K9P]	3.51
RALEEVEMSLQKNFLTQRENTIAG [K9S]	3.06
RALEEVEMTLQKNFLTQRENTIAG [K9T]	3.4
RALEEVEMALQKNFLTQRENTIAG [K9A]	3.09
RALEEVEMILQKNFLTQRENTIAG [K9I]	2.08
RALEEVEMRLQKNFLTQRENTIAG [K9R]	2.31
RALEEVEMDLQKNFLTQRENTIAG [K9D]	4.13
RALEEVEMYLQKNFLTQRENTIAG [K9Y]	1.67
RALEEVEMNLQKNFLTQRENTIAG [K9N]	2.98
RALEEVEMLLQKNFLTQRENTIAG [K9L]	1.73
RALEEVEMELQKNFLTQRENTIAG [K9E]	3.9
RALEEVEMFLQKNFLTQRENTIAG [K9F]	2.24
RALEEVEMQLQKNFLTQRENTIAG [K9Q]	3.13
RALEEVEMWLQKNFLTQRENTIAG [K9W]	1.4
RALEEVEMCLQKNFLTQRENTIAG [K9C]	2.41
RALEEVEMVLQKNFLTQRENTIAG [K9V]	2.55
RALEEVEMHLQKNFLTQRENTIAG [K9H]	2.93
